Data taken from IntAct's records for PubMed 18682223.

B1: DNA polymerase processivity factor (Human cytomegalovirus (strain AD169) (HHV-5)), P16790 (parent)
chain: MDRKTRLSEPPTLALRLKPYKTAIQQLRSVIRALKENTTVTFLPTPSLILQTVRSHCVSKITFNSSCLYITDKSFQPKTINNSTPLLGNFMYLTSSKDLTKFYVQDISDLSAKISMCAPDFNMEFSSACVHGQDIVRESENSAVHVDLDFGVVADLLKWIGPHTRVKRNVKKAPCPTGTVQILVHAGPPAIKFILTNGSELEFTANNRVSFHGVKNMRINVQLKNFYQTLLNCAVTKLPCTLRIVTEHDTLLYVASRNGLFAVENFLTEEPFQRGDPFDKNYVGNSGKSRGGGGGGGSLSSLANAGGLHDDGPGLDNDLMNEPMGLGGLGGGGGGGGKKHDRGGGGGSGTRKMSSGGGGGDHDHGLSSKEKYEQHKITSYLTSKGGSGGGGGGGGGGLDRNSGNYFNDAKEESDSEDSVTFEFVPNTKKQKCG
partner: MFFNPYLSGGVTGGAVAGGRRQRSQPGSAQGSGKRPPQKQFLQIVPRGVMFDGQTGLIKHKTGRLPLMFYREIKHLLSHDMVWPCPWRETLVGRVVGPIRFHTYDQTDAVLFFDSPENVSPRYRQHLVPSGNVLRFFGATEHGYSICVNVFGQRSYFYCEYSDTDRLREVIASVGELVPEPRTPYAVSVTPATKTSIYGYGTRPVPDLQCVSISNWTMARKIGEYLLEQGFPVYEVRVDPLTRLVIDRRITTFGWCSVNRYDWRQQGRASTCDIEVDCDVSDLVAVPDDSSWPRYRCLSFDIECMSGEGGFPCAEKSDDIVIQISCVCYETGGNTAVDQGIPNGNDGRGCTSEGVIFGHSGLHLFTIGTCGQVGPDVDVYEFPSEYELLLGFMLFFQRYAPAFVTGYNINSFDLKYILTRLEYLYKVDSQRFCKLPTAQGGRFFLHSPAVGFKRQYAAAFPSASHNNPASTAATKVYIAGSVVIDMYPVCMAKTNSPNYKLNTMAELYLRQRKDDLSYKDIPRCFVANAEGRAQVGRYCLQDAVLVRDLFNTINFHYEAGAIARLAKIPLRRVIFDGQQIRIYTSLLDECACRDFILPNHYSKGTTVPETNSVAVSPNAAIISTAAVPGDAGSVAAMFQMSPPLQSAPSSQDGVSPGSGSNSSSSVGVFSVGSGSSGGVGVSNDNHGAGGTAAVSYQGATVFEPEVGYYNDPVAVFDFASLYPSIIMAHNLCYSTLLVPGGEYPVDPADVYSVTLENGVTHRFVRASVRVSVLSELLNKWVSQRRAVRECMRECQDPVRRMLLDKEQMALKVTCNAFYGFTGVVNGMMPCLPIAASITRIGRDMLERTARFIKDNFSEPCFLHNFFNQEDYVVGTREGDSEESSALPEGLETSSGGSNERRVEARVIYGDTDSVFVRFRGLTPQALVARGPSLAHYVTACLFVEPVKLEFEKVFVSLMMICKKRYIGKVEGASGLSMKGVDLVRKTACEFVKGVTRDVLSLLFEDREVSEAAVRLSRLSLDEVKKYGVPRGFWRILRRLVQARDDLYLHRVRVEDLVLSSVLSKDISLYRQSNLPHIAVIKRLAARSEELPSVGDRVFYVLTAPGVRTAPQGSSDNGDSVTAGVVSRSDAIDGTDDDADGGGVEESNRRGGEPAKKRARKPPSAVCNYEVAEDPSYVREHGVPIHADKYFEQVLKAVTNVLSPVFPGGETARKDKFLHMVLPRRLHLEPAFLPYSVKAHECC

Variants of: B1
Settings: with dpol_hcmva UL54, P08546

Q: How did the “effect of a mutation on the interaction” value turn out when R165A;K167A;R168A;K171A;K172A was run?
A: decreasing interaction

Q: K35A;K158A;K224A;K237A was tested. Which “effect of a mutation on the interaction” value did it give?
A: decreasing interaction
